Experimental data as given in paper PMC5321536 (Angewandte Chemie (International ed. in English), 2017).

Biological target: the molecule itself
Test: solution-state diffusion-ordered NMR spectroscopy

B1: isolated cytoplasmic (soluble) C-terminal domain of CzcD (CzcD_(209-316)) (domain or fragment, Cupriavidus metallidurans CH34, UniProt P13512 209-316, looked up)
chain: EGVPDDVDLAEVEKQILATPGVKSFHDLHIWALTSGKASLTVHVVNDTAVNPEMEVLPELKQMLADKFDITHVTIQFELAPCEQADAAQHFNASPALVGSKSLAAGGN
- stoichiometry N: 2
